PMC9245612 (Proceedings of the National Academy of Sciences of the …, 2022)

How the values were obtained:
purified protein = substrate: Nc1ncnc2c1ncn2[C@@H]1O[C@H](COP(=O)(O)OP(=O)(O)OP(=O)(O)O)[C@@H](O)[C@H]1O; test: purified protein; conditions: co-substrate NAD+, 37 °C
SEC = molecular target: the molecule itself; test: SEC

| Protein | Km (purified protein) [µM] | stoichiometry N (SEC) |
| --- | --- | --- |
| human NADK2 mature protein (amino acids 47 to 442) (enzyme, UniProt Q4G0N4 47-442, looked up) LGQGQPRELAGCGSRADGGFRPSRVVVVAKTTRYEFEQQRYRYAELSEEDLKQLLALKGSSYSGLLERHHIHTKNVEHIIDSLRNEGIEVRLVKRREYDEETVRWADAVIAAGGDGTMLLAASKVLDRLKPVIGVNTDPERSEGHLCLPVRYTHSFPEALQKFYRGEFRWLWRQRIRLYLEGTGINPVPVDLHEQQLSLNQHNRALNIERAHDERSEASGPQLLPVRALNEVFIGESLSSRASYYEISVDDGPWEKQKSSGLNLCTGTGSKAWSFNINRVATQAVEDVLNIAKRQGNLSLPLNRELVEKVTNEYNESLLYSPEEPKILFSIREPIANRVFSSSRQRCFSSKVCVRSRCWDACMVVDGGTSFEFNDGAIASMMINKEDELRTVLLEQ | 2200 | 2 |
| human cytosolic NADK, full-length (enzyme, UniProt O95544 1-446, looked up) MEMEQEKMTMNKELSPDAAAYCCSACHGDETWSYNHPIRGRAKSRSLSASPALGSTKEFRRTRSLHGPCPVTTFGPKACVLQNPQTIMHIQDPASQRLTWNKSPKSVLVIKKMRDASLLQPFKELCTHLMEENMIVYVEKKVLEDPAIASDESFGAVKKKFCTFREDYDDISNQIDFIICLGGDGTLLYASSLFQGSVPPVMAFHLGSLGFLTPFSFENFQSQVTQVIEGNAAVVLRSRLKVRVVKELRGKKTAVHNGLGENGSQAAGLDMDVGKQAMQYQVLNEVVIDRGPSSYLSNVDVYLDGHLITTVQGDGVIVSTPTGSTAYAAAAGASMIHPNVPAIMITPICPHSLSFRPIVVPAGVELKIMLSPEARNTAWVSFDGRKRQEIRHGDSISITTSCYPLPSICVRDPVSDWFESLAQCLHWNVRKKQAHFEEEEEEEEEG | – | 4 |
